The Human Domainome abundance scans (Beltran et al. 2025)
± gives the uncertainty stated by the source.

B1: Ankyrin-2, residues 3571 to 3650; numbered along this chain, Q01484 (parent)
chain: ERLAYIADHLGFSWTELARELDFTEEQIHQIRIENPNSLQDQSHALLKYWLERDGKHATDTNLVECLTKINRMDIVHLME

Variants of: B1
Experiment: abundance fitness (aPCA) (normalised: wild type 0, dead -1); higher = more abundant; growth selection in yeast, the domain comes from the species named
Settings: Homo sapiens

Variant	abundance fitness
T59H	-0.055 ± 0.08
T59Y	0.121 ± 0.13
T59R	-0.087 ± 0.047
T59L	-0.04 ± 0.061
T59G	-0.088 ± 0.05
T59A	-0.035 ± 0.059
T59K	-0.025 ± 0.2
T59N	-0.054 ± 0.21
T59V	-0.106 ± 0.071
T59C	-0.095 ± 0.1
T59E	-0.069 ± 0.088
T59Q	0.008 ± 0.074
T59D	-0.103 ± 0.12
T59S	0.036 ± 0.046
T59M	-0.124 ± 0.13
T59W	-0.099 ± 0.062
T59F	-0.159 ± 0.099
R53C	-0.086 ± 0.098
R53T	-0.029 ± 0.072
R53D	-0.413 ± 0.16
R53H	-0.092 ± 0.15
R53S	0.005 ± 0.056
R53Y	-0.166 ± 0.19
R53P	-0.216 ± 0.055

Variant	abundance fitness
R53M	-0.109 ± 0.098
R53G	-0.117 ± 0.055
R53A	-0.052 ± 0.063
R53V	-0.067 ± 0.07
R53N	-0.144 ± 0.17
R53L	-0.236 ± 0.068
R53W	0.002 ± 0.079
R53K	-0.029 ± 0.16
D60T	-0.016 ± 0.11
D60W	-0.067 ± 0.049
D60K	-0.092 ± 0.12
D60R	-0.082 ± 0.049
D60M	0.019 ± 0.11
D60E	-0.041 ± 0.08
D60Y	-0.151 ± 0.13
D60L	-0.022 ± 0.059
D60A	-0.07 ± 0.071
D60P	-0.069 ± 0.058
D60I	-0.104 ± 0.12
D60F	0.074 ± 0.093
D60C	-0.043 ± 0.098
D60S	-0.105 ± 0.05
D60Q	-0.018 ± 0.075
D60H	-0.286 ± 0.16

Variant	abundance fitness
D60N	-0.375 ± 0.2
D60G	-0.115 ± 0.044
E65C	-0.147 ± 0.11
E65T	0.031 ± 0.057
E65K	-0.086 ± 0.098
E65M	-0.243 ± 0.096
E65F	-0.184 ± 0.17
E65Y	0.097 ± 0.12
E65Q	-0.017 ± 0.067
E65P	0.015 ± 0.051
E65L	-0.072 ± 0.058
E65H	-0.059 ± 0.13
E65I	0.143 ± 0.15
E65N	-0.231 ± 0.25
E65D	0.193 ± 0.21
E65V	-0.099 ± 0.058
E65A	-0.012 ± 0.052
E65R	-0.011 ± 0.045
E65W	-0.246 ± 0.075
E65S	-0.056 ± 0.05
E65G	0.014 ± 0.048
K56H	0.022 ± 0.099
K56T	-0.01 ± 0.073
K56Q	-0.067 ± 0.12

Variant	abundance fitness
K56F	-0.023 ± 0.094
K56D	0.052 ± 0.14
K56Y	-0.13 ± 0.12
K56V	-0.057 ± 0.059
K56S	-0.019 ± 0.061
K56C	0.067 ± 0.097
K56E	0.149 ± 0.12
K56P	-0.05 ± 0.063
K56I	-0.084 ± 0.13
K56W	-0.126 ± 0.063
K56L	-0.043 ± 0.054
K56A	-0.02 ± 0.059
K56R	-0.037 ± 0.045
K56N	-0.071 ± 0.1
W50K	0.063 ± 0.27
W50S	-0.081 ± 0.06
W50Q	0.003 ± 0.068
W50T	-0.05 ± 0.15
W50E	-0.316 ± 0.1
W50A	0.003 ± 0.047
W50H	-0.132 ± 0.13
W50G	-0.28 ± 0.058
W50M	0.007 ± 0.094
W50D	-0.598 ± 0.19

Variant	abundance fitness
W50N	-0.041 ± 0.17
W50F	-0.086 ± 0.12
W50P	-0.664 ± 0.059
W50C	-0.053 ± 0.096
W50L	0.012 ± 0.056
W50Y	-0.14 ± 0.24
W50V	-0.017 ± 0.066
W50R	-0.205 ± 0.064
Y49P	-0.513 ± 0.064
Y49C	0.037 ± 0.11
Y49K	-0.052 ± 0.18
Y49R	-0.129 ± 0.056
Y49M	0.059 ± 0.1
Y49S	-0.001 ± 0.051
Y49W	-0.117 ± 0.12
Y49I	-0.009 ± 0.13
Y49L	0.017 ± 0.071
Y49N	-0.056 ± 0.12
Y49F	0.02 ± 0.15
Y49A	0.016 ± 0.065
Y49D	-0.031 ± 0.12
Y49G	0.042 ± 0.055
Y49V	0.068 ± 0.078
D54A	-0.022 ± 0.069

Variant	abundance fitness
D54I	-0.354 ± 0.13
D54V	-0.024 ± 0.071
D54R	-0.073 ± 0.063
D54W	-0.041 ± 0.1
D54Q	-0.111 ± 0.11
D54Y	0.008 ± 0.091
D54G	0.003 ± 0.061
D54C	-0.134 ± 0.15
D54F	0.01 ± 0.12
D54N	-0.033 ± 0.13
D54H	0.025 ± 0.1
D54M	-0.013 ± 0.1
D54L	-0.035 ± 0.058
D54E	-0.02 ± 0.13
D54S	-0.095 ± 0.045
D54P	-0.144 ± 0.058
D54T	0.018 ± 0.095
D54K	0.097 ± 0.17
A58Y	0.026 ± 0.19
A58T	-0.098 ± 0.082
A58H	0.156 ± 0.18
A58F	-0.05 ± 0.073
A58W	-0.167 ± 0.082
A58P	0.027 ± 0.079

Variant	abundance fitness
A58E	-0.071 ± 0.088
A58C	-0.026 ± 0.13
A58R	-0.067 ± 0.044
A58I	-0.294 ± 0.12
A58S	-0.193 ± 0.076
A58Q	0.039 ± 0.093
A58M	-0.231 ± 0.13
A58N	0.054 ± 0.15
A58L	0.041 ± 0.061
A58V	-0.018 ± 0.052
A58G	-0.03 ± 0.047
K48Y	-0.093 ± 0.12
K48N	0.028 ± 0.14
K48S	-0.094 ± 0.055
K48L	0.02 ± 0.068
K48P	-0.848 ± 0.075
K48Q	-0.097 ± 0.11
K48T	0.04 ± 0.058
K48R	0.01 ± 0.056
K48V	-0.076 ± 0.092
K48F	-0.053 ± 0.15
K48D	-0.062 ± 0.17
K48W	-0.171 ± 0.11
K48C	0.054 ± 0.14

Variant	abundance fitness
K48E	-0.027 ± 0.19
K48H	-0.015 ± 0.12
K48A	-0.063 ± 0.062
K48I	-0.164 ± 0.17
K48M	-0.2 ± 0.17
H57G	-0.019 ± 0.052
H57V	0 ± 0.092
H57C	-0.062 ± 0.07
H57L	-0.093 ± 0.064
H57P	0.009 ± 0.067
H57M	0.004 ± 0.085
H57N	-0.002 ± 0.13
H57D	-0.061 ± 0.11
H57K	0.056 ± 0.16
H57W	-0.065 ± 0.09
H57F	-0.107 ± 0.084
H57E	0.101 ± 0.13
H57S	0.06 ± 0.058
H57R	-0.052 ± 0.058
L47Q	-0.626 ± 0.1
L47T	-0.026 ± 0.059
L47I	-0.061 ± 0.11
L47P	-1.28 ± 0.16
L47K	-0.412 ± 0.17

Variant	abundance fitness
L47S	-0.462 ± 0.058
L47E	-0.673 ± 0.057
L47V	-0.034 ± 0.062
L47G	-0.409 ± 0.06
L47H	-0.592 ± 0.3
L47W	-0.238 ± 0.079
L47C	-0.163 ± 0.094
L47M	0.123 ± 0.098
L47D	-0.935 ± 0.45
L47R	-0.541 ± 0.062
L47F	0.046 ± 0.13
L47N	-0.582 ± 0.23
L47Y	-0.148 ± 0.18
T61E	-0.07 ± 0.13
T61F	-0.063 ± 0.18
T61Q	-0.093 ± 0.14
T61V	0.112 ± 0.12
T61N	-0.244 ± 0.25
T61A	-0.102 ± 0.063
T61P	0.029 ± 0.06
T61K	-0.286 ± 0.26
T61I	0.027 ± 0.24
T61G	-0.011 ± 0.079
T61Y	-0.087 ± 0.14

Variant	abundance fitness
T61M	-0.427 ± 0.26
T61L	0.084 ± 0.076
T61D	-0.017 ± 0.12
T61R	-0.118 ± 0.084
T61H	-0.038 ± 0.13
L63G	-0.624 ± 0.086
L63R	-0.935 ± 0.087
L63C	-0.044 ± 0.13
L63A	-0.11 ± 0.049
L63E	-0.657 ± 0.12
L63Q	-0.885 ± 0.2
L63P	-0.651 ± 0.071
L63W	-0.205 ± 0.13
L63H	-0.777 ± 0.22
L63T	-0.408 ± 0.1
L63S	-0.634 ± 0.081
L63F	-0.143 ± 0.12
L63Y	-0.139 ± 0.15
L63V	-0.091 ± 0.041
L63K	-0.677 ± 0.32
L63I	0.07 ± 0.11
L63M	0.022 ± 0.17
E52I	-0.039 ± 0.11
E52F	-0.034 ± 0.14

Variant	abundance fitness
E52T	0.006 ± 0.087
E52D	-0.178 ± 0.13
E52Y	-0.393 ± 0.098
E52L	0.012 ± 0.081
E52W	-0.045 ± 0.12
E52R	-0.045 ± 0.088
E52S	-0.057 ± 0.062
E52G	-0.146 ± 0.055
E52A	0.037 ± 0.094
E52H	-0.09 ± 0.12
E52P	-0.378 ± 0.12
E52V	0.006 ± 0.063
E52Q	0.088 ± 0.12
E52M	-0.083 ± 0.12
E52K	0.036 ± 0.13
E52C	-0.132 ± 0.052
C66E	0.091 ± 0.12
C66A	-0.016 ± 0.059
C66K	0.014 ± 0.1
C66D	-0.363 ± 0.15
C66H	0.009 ± 0.2
C66F	-0.035 ± 0.1
C66I	-0.143 ± 0.082
C66G	-0.045 ± 0.042

Variant	abundance fitness
L51Y	0.031 ± 0.091
L51W	-0.106 ± 0.17
L51A	-0.165 ± 0.1
L51T	0.017 ± 0.17
L51E	-0.111 ± 0.22
L51R	-0.072 ± 0.065
L51D	-0.058 ± 0.11
L51G	-0.154 ± 0.13
L51F	0.037 ± 0.17
L51I	-0.015 ± 0.2
L51S	-0.107 ± 0.075
L51H	-0.034 ± 0.28
L51C	-0.236 ± 0.16
L51Q	0.104 ± 0.13
L51V	-0.087 ± 0.1
L51N	-0.123 ± 0.13
L51P	-0.272 ± 0.079
N62Y	-0.135 ± 0.12
N62I	-0.169 ± 0.1
N62F	-0.181 ± 0.13
N62M	0.018 ± 0.14
N62D	0.051 ± 0.081
N62R	-0.013 ± 0.05
N62A	-0.001 ± 0.053

Variant	abundance fitness
N62W	0.012 ± 0.12
N62E	-0.089 ± 0.13
N62T	-0.029 ± 0.083
N62V	0.035 ± 0.056
N62Q	-0.082 ± 0.089
N62P	-0.079 ± 0.054
N62L	0.004 ± 0.047
N62K	-0.374 ± 0.46
N62G	0.072 ± 0.046
N62S	0.007 ± 0.048
N62H	0.015 ± 0.11
G55Q	0.008 ± 0.047
G55Y	-0.052 ± 0.066
G55T	-0.026 ± 0.037
G55E	-0.033 ± 0.044
G55K	-0.094 ± 0.066
G55W	-0.112 ± 0.063
G55N	0.028 ± 0.081
G55H	-0.041 ± 0.072
G55A	-0.013 ± 0.034
G55S	-0.045 ± 0.036
G55P	-0.035 ± 0.036
G55L	-0.017 ± 0.031
G55I	-0.089 ± 0.064

Variant	abundance fitness
G55F	-0.143 ± 0.051
G55D	0.041 ± 0.073
G55M	-0.061 ± 0.051
G55C	-0.114 ± 0.077
G55V	-0.038 ± 0.034
V64F	-0.073 ± 0.1
V64C	-0.134 ± 0.096
V64A	-0.019 ± 0.078
V64I	0.009 ± 0.063
V64G	-0.108 ± 0.078
V64T	0.025 ± 0.095
V64P	-0.266 ± 0.076
V64S	-0.011 ± 0.055
V64D	-0.206 ± 0.12
V64R	0.01 ± 0.076
V64M	0.007 ± 0.12
V64L	-0.016 ± 0.057
V64E	0.079 ± 0.12
V64Q	-0.065 ± 0.11
V64W	-0.165 ± 0.14
V64N	-0.369 ± 0.28
V64Y	-0.041 ± 0.14
